Results: patent US20210047398A1, “ASPROSIN, A FAST-INDUCED GLUCOGENIC PROTEIN HORMONE” (Baylor College of Medicine, priority 2016, published 2021)

Key:
[1] = rat, in vivo, iv
[2] = Body composition, plasma parameters, histology, GTT and ITT in WT mice with increased circulating asprosin; assay type: in vivo
Description: Animals—10-week old male WT C57/Bl6 mice were used for all in vivo studies. […] Mice were injected with 2.6 micro molar recombinant His tagged Asprosin or recombinant GFP daily for 10 days via subcutaneous injection. Mice were sacrificed and plasma and various organs were isolated 10 days after viral infusion or peptide injection. The Baylor College of Medicine Institutional Animal Care and Utilization Committee approved all experiments.
Body composition and Serum analyses—Body composition was analyzed with the ECHO-MRI system (Echo medical systems, Texas). Mouse serum was prepared from blood obtained through cardiac puncture and analyzed with the COBAS Integra 400 plus analyzer (Roche). Plasma leptin, FFA, adiponectin and triglyceride levels were measured by using a Mouse Leptin ELISA Kit (Millipore), NEFA C Test Kit (Wako), Mouse Adiponectin ELISA Kit (Millipore) and Serum/plasma triglyceride detection kit (Sigma), respectively.
Histology—Mouse inguinal adipose tissue samples were fixed in 10% formaldehyde for H&E staining. Frozen livers were used for oil-red-O staining to evaluate hepatic triglyceride content.
Blood glucose levels were measured using a glucometer (Life Scan).

[3] = both experiments, 10 days, 4-hour fasted

B1: recombinant asprosin: 146 amino acid E. coli expressed fusion protein: 6 amino acid N-terminal His tag and 140 amino acid wild type asprosin (FBN1 2732-2871) (protein)
chain: HHHHHHSTNETDASNIEDQSETEANVSLASWDVEKTAIFAFNISHVSNKVRILELLPALTTLTNHNRYLIESGNEDGFFKINQKEGISYLHFTKKKPVAGTYSLQISSTPLYKKKELNQLEDKYDKDYLSGELGDNLKMKIQVLLH
elevation in CSF asprosin [1]: 6 fold | his-tag signal in the CSF [1]: strong his-tag signal | blood glucose in insulin tolerance test ([2]; 60 minute mark, GFP mice had severe hypoglycemia): maintained their blood glucose levels | glucose and insulin tolerance tests ([2]; 10 days, FIGS. 5G-5J): consistent with a diabetogenic effect | fat cell volume, inguinal white fat microscopy ([2]; both experiments (FBN1 adenovirus; daily subcutaneous asprosin), 10 days): larger fat cell volume | plasma leptin and adiponectin [2, 3]: higher levels | plasma triglycerides and free fatty acids [2, 3]: lower levels | plasma glucose and insulin ([2]; fasted mice, 10 days, FIGS. 11A-11D): hyperglycemia and hyperinsulinemia | fat mass (MRI) ([2]; ten days of daily subcutaneous injection, vs GFP injection): significant increase | lean mass (MRI) ([2]; ten days of daily subcutaneous injection, same in GFP injected mice): slight but significant decrease
